Measurements as given in patent publication US20170298106A1 (ZYNGENIA, published 2017).
Where no end group is shown, it is not given here. MBP = maltose binding protein (MBP), fused to the peptide

T1: angiopoietin-2 (Ang2) (human, UniProt O15123 68-496, limits assumed)
T1 construct: Plain and biotinylated Ang2 are kept as one molecule; also called rhAng2; recombinant Ang2
T1 sequence (looked up): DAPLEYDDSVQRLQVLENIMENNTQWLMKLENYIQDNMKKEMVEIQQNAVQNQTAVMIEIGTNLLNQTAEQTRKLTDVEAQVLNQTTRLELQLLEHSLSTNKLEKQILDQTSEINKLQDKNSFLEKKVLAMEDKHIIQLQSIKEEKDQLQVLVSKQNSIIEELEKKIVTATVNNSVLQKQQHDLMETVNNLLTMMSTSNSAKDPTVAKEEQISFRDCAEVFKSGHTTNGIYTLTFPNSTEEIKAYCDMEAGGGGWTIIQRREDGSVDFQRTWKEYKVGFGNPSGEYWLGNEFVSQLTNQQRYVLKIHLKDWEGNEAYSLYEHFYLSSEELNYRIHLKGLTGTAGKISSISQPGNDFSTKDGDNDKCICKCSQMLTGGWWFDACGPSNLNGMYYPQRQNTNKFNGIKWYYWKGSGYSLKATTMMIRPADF


Key:
insulin receptor = insulin receptor (UniProt P06213-2 28-944, limits assumed); assay: not described
[1] = molecular target: T2, insulin-like growth factor-I receptor (IGF1R) (UniProt P08069 31-932, limits assumed); assay: ELISA, coated antigen, absorbance at 405 nm, one condition per construct, BSA-coated wells as control; the bar labelled Antigen is the antigen of the MRD of the construct, here IGF1R (RP)
T2 construct: also called immobilized IGF-1R

angiopoietin-2 (Ang2) [2] = molecular target: T1, angiopoietin-2 (Ang2); assay: binding of MBP fusion to Ang2
VEGF [3] = molecular target: T3, VEGF (human, UniProt P15692-4 27-191); assay: cell-based or functional assay
VEGF [4] = molecular target: T3, VEGF; assay: sandwich ELISA, human VEGF coated (30 ng/ml), zybody varied in 3.876 ug/ml biotinylated Ang2, detection with HRP-streptavidin, A450
Procedure: (§1) Ninety-six-well plates were coated overnight with human VEGF (PeproTech, Inc. cat#100-20) at 30 ng/ml (100 μl/well). […] After washing (8×300 μl wash buffer), parallel samples received either HRP-conjugated anti-human kappa chain mAb (Abeam, cat # ab79115) diluted 1:1000 in Blocking buffer or HRP-conjugated streptavidin (Thermo Scientific cat#N100) diluted 1:4000 diluted in Blocking buffer. After incubation for 1 hour at RT, wells were washed (8×300 μl wash buffer) prior to receiving 100 μl of TMB substrate (KPL Laboratories). Color development was stopped with 100 μl of H₂SO₄, and absorbance was read at 450 nm.

rHER2-Fc = molecular target: T4, rHER2-Fc (UniProt P04626 23-652); assay: ELISA, rHER2-Fc coated (20 ng/ml), sample diluted in 1.94 ug/ml biotinylated Ang2, detection with HRP anti-human kappa chain mAb, A450
T4 construct: Bought reagent; also called Her2 (ErbB2) Fc; ErbB2-Fc
Procedure: as §1, with “with rHER2-Fc (R&D cat#1129-ER-050)” for “with human VEGF (PeproTech, Inc. cat#100-20)”, “at 20” for “at 30”, “ng/ml (100W/well).” for “ng/ml (100 μl/well).”, “chain mAb-(Abeam,” for “chain mAb (Abeam,”, “# ab79115-1)” for “# ab79115)”

VEGF [5] = molecular target: T3, VEGF; assay: ELISA, human VEGF coated (30 ng/ml), sample diluted in 3.876 ug/ml biotinylated Ang2, detection with HRP anti-human kappa chain mAb, A450
Procedure: as §1

angiopoietin-2 (Ang2) [6] = molecular target: T1, angiopoietin-2 (Ang2); assay: ELISA on rhAng2-coated wells, MRD-MBP fusion, anti-MBP detection; EC50 by 4 parameter fit
Procedure: MBP fusion proteins were serially diluted in Blocking buffer and added to wells for 2 hours at RT. After washing (8×300 μl wash buffer), samples were treated with HRP-mouse anti MBP mAb (NEB, cat # E8038S), diluted 1:4000 in Blocking buffer. After incubation for 1 hour at RT, wells were washed (8×300 μl wash buffer) prior to receiving 100 μl of TMB substrate (KPL Laboratories). Color development was stopped with 100 μl of H₂SO₄, and absorbance was read at 450 nm.
Bound fusion proteins were detected with anti-MBP mAb. Assayed proteins represent mutational variants of the sequence […] […] (L17D) (SEQ ID NO:107). In this series, the motif MDD within L17D was mutated at the first D to all other possible amino acids (except cysteine). Other MRDs tested were “Lm32 KtoS” and a dimer of Lm32 (2×Lm32).

integrin αvβ3 = molecular target: T5, integrin αvβ3 (UniProt P06756 31-992; P05106 27-718, limits assumed); assay: ELISA, coated antigen, absorbance at 405 nm, one condition per construct, BSA-coated wells as control; the bar labelled Antigen is the antigen of the MRD of the construct, here integrin avb3
T5 construct: Antigen of the ELISAs
T5 sequence (P06756 31-992 limits assumed, chain 1 of 2): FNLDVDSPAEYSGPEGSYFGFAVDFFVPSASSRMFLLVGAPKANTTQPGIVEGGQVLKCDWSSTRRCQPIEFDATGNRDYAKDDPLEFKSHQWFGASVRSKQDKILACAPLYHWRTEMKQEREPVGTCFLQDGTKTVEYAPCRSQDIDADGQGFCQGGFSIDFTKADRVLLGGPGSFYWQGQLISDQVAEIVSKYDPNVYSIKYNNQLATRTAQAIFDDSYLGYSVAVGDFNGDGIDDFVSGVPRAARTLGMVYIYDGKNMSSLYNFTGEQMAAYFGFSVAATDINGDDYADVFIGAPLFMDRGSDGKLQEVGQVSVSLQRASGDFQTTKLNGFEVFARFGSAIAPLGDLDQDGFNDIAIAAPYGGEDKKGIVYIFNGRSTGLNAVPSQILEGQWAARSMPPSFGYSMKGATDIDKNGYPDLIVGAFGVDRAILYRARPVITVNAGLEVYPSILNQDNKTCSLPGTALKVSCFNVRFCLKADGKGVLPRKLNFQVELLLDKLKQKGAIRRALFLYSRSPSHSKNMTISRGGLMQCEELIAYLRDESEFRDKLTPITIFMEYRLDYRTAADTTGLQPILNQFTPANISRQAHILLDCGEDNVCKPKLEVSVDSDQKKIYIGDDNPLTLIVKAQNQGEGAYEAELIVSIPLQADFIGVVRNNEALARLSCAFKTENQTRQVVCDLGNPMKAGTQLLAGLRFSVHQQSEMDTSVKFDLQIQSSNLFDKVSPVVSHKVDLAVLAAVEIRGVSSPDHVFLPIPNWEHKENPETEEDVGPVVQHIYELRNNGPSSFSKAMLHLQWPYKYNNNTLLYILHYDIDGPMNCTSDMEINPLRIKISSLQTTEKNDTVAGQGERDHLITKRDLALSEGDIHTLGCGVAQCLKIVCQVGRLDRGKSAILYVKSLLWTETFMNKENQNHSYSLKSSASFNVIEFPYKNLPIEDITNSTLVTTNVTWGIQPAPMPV
T5 sequence (P05106 27-718 limits assumed, chain 2 of 2): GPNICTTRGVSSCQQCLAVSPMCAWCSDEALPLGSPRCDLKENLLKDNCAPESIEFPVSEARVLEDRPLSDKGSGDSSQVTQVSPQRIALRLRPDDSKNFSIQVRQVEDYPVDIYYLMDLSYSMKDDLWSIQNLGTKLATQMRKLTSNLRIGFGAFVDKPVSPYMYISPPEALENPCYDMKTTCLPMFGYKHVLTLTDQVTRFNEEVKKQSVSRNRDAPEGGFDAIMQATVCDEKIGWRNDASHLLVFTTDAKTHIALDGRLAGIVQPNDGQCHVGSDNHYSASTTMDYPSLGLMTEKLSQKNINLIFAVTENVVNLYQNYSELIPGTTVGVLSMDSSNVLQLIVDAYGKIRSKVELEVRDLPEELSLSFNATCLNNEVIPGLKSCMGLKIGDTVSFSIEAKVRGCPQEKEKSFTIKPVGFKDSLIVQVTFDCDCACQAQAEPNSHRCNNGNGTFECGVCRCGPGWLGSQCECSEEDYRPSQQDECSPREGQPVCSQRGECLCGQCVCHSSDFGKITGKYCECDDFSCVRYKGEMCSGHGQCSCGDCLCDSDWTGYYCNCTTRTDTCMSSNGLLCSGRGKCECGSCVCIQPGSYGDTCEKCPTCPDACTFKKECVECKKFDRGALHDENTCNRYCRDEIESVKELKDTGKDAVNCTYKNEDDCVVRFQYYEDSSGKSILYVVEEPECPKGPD

Sequence of insulin receptor (P06213 other isoform, or with tags, fused parts or gaps limits assumed): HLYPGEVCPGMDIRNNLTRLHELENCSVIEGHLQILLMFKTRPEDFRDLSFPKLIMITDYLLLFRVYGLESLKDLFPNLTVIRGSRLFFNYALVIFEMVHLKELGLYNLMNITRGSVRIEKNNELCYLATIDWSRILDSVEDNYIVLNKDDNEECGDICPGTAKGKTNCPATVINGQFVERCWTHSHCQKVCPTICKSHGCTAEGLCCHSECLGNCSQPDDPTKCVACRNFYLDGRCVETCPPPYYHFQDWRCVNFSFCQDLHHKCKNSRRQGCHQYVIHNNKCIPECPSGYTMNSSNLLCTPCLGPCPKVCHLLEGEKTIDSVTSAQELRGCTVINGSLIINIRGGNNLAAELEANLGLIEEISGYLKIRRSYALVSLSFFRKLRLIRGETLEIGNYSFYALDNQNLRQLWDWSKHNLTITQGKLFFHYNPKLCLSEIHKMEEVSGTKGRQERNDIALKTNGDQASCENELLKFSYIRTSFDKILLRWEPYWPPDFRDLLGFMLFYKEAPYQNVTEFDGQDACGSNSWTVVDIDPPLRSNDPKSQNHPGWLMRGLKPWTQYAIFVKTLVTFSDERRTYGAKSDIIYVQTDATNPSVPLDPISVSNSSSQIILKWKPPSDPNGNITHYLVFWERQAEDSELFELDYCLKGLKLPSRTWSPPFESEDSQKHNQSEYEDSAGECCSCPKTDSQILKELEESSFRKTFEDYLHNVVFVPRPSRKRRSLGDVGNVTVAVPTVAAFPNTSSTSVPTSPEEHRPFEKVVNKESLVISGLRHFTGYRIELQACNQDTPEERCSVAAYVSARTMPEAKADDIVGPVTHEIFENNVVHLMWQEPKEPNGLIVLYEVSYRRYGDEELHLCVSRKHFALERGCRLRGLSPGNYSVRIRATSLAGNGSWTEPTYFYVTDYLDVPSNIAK
T3 sequence (P15692 other isoform, or with tags, fused parts or gaps limits assumed): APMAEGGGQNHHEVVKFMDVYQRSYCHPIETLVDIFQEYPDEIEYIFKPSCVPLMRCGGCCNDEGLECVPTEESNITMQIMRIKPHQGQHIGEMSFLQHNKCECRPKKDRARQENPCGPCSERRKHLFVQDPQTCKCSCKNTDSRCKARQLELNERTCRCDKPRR

Row | binding result (insulin receptor) | EC50 (angiopoietin-2 (Ang2) [2]) | Binder | other results
1 | no binding |  | NFYQCIEALARTPAEKSRGQWVECRAP [Rm4-417] | 
2 | no binding |  | NFYQCIEQLSSGPAEKSRGQWQECRTG [Rm4-411] | 
3 | no binding |  | NFYQCIDLLMAYPAEKSRGQWQECRTGG [Rm4-39] | 
4 | no binding |  | NFYQCIEYLAMKPAEKSRGQWQECRTGG [Rm4-314] | 
5 | no binding |  | NFYQCIEALQSRPAEKSRGQWQECRTGG [Rm4-316] | 
6 |  |  | Her-1L-RP (bispecific antibody, not shown: a dimerising Fc or GST, Her = HERCEPTIN) light (part 1 of 2): not shown light (part 2 of 2): SSGGGGSGGGGGGSSRSSSFYSCLESLVNGPAEKSRGQWDGCRKK VH: not shown | binding result [1]: no binding
7 | no binding |  | NFYQCIEHLSGSPAEKSRGQWQECRTG [Rm4-44] | 
8 | no binding |  | NFYQCIERLVTGPAEKSRGQWQECRTGG [Rm4-310] | 
9 |  | 0.182 nM | {MBP}-KSLSLSPGSGGGSMGAQTNFMPMDNDEALLYEQFILQQGLE (other, not shown: large carriers, also: N-terminal MBP fusion, not in chain) [MBP fusion of LM32 variant SEQ ID NO:90] | 
10 |  | 0.392 nM | {MBP}-KSLSLSPGSGGGSMGAQTNFMPMDNDEALLYEQFIYQQGLE (other, not shown: large carriers, also: N-terminal MBP fusion, not in chain) [MBP fusion of LM32 variant SEQ ID NO:94] | 
11 |  | 0.902 nM | {MBP}-KSLSLSPGSGGGSMGAQTNFMPMDNDEGLLYEQFIYQQGLE (other, not shown: large carriers, also: N-terminal MBP fusion, not in chain) [MBP fusion of LM32 variant SEQ ID NO:93] | 
12 |  | 1.42 nM | {MBP}-KSLSLSPGSGGGSMGAQTNFMPMDNDELTLYEQFILQQGLE (other, not shown: large carriers, also: N-terminal MBP fusion, not in chain) [MBP fusion of LM32 variant SEQ ID NO:91] | 
13 |  | 0.922 nM | {MBP}-KSLSLSPGSGGGSMGAQTNFMPMDNDEGLLYEEFILQQGLE (other, not shown: large carriers, also: N-terminal MBP fusion, not in chain) [MBP fusion of LM32 variant SEQ ID NO:96] | 
14 |  | 0.24 nM | {MBP}-KSLSLSPGSGGGSMGAQTNFMPMDDDELLLYEQFILQQGLE (other, not shown: large carriers, also: N-terminal MBP fusion, not in chain) [MBP fusion of LM32 variant SEQ ID NO:100] | 
15 |  | 0.426 nM | {MBP}-KSLSLSPGSGGGSMGAQTNFMPMDNDEALLYEEFILQQGLE (other, not shown: large carriers, also: N-terminal MBP fusion, not in chain) [MBP fusion of LM32 variant SEQ ID NO:97] | 
16 |  | 0.383 nM | {MBP}-KSLSLSPGSGGGSMGAQTNFMPMDQDELLLYEQFILQQGLE (other, not shown: large carriers, also: N-terminal MBP fusion, not in chain) [MBP fusion of LM32 variant SEQ ID NO:99] | 
17 | no binding |  | NFYQCIEALSRSPAEKSRGQWQECRTGG [Rm4-319] | 
18 | no binding |  | NFYQCIEQLALRPAEKSRGQWQECRTGG [Rm4-33] | 
19 |  |  | AVA-lm32(H) (bispecific antibody, not shown: a dimerising Fc or GST, also called AVASTIN with the lm32 MRD fused to the heavy chain) heavy (part 1 of 2): EVQLVESGGGLVQPGGSLRLSCAASGYTFTNYGMNWVRQAPGKGLEWVGWINTYTGEPTYAADFKRRFTFSLDTSKSTAYLQMNSLRAEDTAVYYCAKYPHYYGSSHWYFDVWGQGTLVTVSS heavy (part 2 of 2): MGAQTNFMPMDNDELLLYEQFILQQGLE VL: DIQMTQSPSSLSASVGDRVTITCSASQDISNYLNWYQQKPGKAPKVLIYFTSSLHSGVPSRFSGSGSGTDFTLTISSLQPEDFATYYCQQYSTVPWTFGQGTKVEIKR | inhibition of VEGF-induced proliferation of HUVEC, IC50 (VEGF [3]): 0.36 nM; EC50 (read off the curve) (VEGF [4]): ~0.7 nM; binding result (rHER2-Fc): no binding (tested: about 7 nM); EC50 (read off the curve) (VEGF [5]): ~0.5 nM
20 |  |  | {MBP}-PGSGGGSMGAQTNFMPMDNDELLLYEQFILQQGLE (other, not shown: small tags and cut ends, also: N-terminal MBP fusion, not in chain) [Lm32 KtoS-MBP fusion] | EC50 (angiopoietin-2 (Ang2) [6]): 0.199 nM
21 | no binding |  | NFYQCIEALVGVPAEKSRGQWQECRTG [Rm4-46] | 
22 | no binding |  | NFYQCIELLSARPAEKSRGQWAECRAG [Rm4-415] | 
23 | no binding |  | NFYQCIEMLASHPAEKSRGQWQECRTGG [Rm4-31] | 
24 | no binding |  | NFYQCIEMLSLPPAEKSRGQWQECRTG [Rm4-49] | 
25 |  | 1.08 nM | {MBP}-KSLSLSPGSGGGSMGAQTNFMPMDNDELLLYEQFI (other, not shown: large carriers, also: N-terminal MBP fusion, not in chain) [MBP fusion of LM32 variant SEQ ID NO:32] | 
26 |  | 20.7 nM | {MBP}-KSLSLSPGSGGGSMGAQTNFMPMDNEELLLYEQFI (other, not shown: large carriers, also: N-terminal MBP fusion, not in chain) [MBP fusion of LM32 variant SEQ ID NO:33] | 
27 | no binding |  | NFYQCIEVFWGRPAEKSRGQWQECRTG [Rm4-410] | 
28 |  |  | Her-sL-RGD4C (bispecific antibody, not shown: a dimerising Fc or GST, Her = HERCEPTIN) light (part 1 of 2): not shown light (part 2 of 2): GGGSCDCRGDCFC VH: not shown | binding result (integrin αvβ3): no binding
29 |  |  | HER-lm32(H) (bispecific antibody, not shown: a dimerising Fc or GST, also called HERCEPTIN-lm32 fusion; HERCEPTIN lm-32) heavy (part 1 of 2): not shown heavy (part 2 of 2): KSLSLSPGKGGGSMGAQTNFMPMDNDELLLYEQFILQQGLE VL: not shown | binding result (VEGF [5]): no binding (tested: about 20 nM)
30 | no binding |  | NFYQCIESLAGGPAEKSRGQWQECRTG [Rm4-45] | 
